Patent US20190248863A1 (published 2019)

Key:
Test in all cases: cell-based or functional assay
human RXFP1 = molecular target: T1, human RXFP1 (human, UniProt Q9HBX9 1-757)
T1 sequence (looked up): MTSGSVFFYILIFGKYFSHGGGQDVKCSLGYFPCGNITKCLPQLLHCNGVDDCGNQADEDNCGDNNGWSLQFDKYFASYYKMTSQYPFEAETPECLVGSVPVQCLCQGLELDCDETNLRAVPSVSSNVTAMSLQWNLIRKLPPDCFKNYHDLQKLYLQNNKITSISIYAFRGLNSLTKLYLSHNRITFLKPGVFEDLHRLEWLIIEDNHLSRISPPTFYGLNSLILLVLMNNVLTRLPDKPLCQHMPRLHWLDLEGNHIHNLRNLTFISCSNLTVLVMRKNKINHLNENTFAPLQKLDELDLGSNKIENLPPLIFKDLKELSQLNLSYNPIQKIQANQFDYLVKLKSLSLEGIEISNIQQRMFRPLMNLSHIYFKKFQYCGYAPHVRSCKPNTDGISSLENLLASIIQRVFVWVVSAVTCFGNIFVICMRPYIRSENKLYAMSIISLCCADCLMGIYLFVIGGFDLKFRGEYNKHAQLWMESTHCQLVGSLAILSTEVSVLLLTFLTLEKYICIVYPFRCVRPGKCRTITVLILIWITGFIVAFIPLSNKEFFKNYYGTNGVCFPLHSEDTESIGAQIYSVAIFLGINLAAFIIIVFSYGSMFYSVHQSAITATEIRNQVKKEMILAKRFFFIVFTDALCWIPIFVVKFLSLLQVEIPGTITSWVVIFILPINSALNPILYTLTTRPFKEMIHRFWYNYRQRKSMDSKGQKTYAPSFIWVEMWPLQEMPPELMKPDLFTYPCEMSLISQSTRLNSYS

cynomolgus monkey RXFP1 = molecular target: T2, cynomolgus monkey RXFP1 (cynomolgus monkey, UniProt H9ERA2 1-757 (rhesus entry))
T2 sequence: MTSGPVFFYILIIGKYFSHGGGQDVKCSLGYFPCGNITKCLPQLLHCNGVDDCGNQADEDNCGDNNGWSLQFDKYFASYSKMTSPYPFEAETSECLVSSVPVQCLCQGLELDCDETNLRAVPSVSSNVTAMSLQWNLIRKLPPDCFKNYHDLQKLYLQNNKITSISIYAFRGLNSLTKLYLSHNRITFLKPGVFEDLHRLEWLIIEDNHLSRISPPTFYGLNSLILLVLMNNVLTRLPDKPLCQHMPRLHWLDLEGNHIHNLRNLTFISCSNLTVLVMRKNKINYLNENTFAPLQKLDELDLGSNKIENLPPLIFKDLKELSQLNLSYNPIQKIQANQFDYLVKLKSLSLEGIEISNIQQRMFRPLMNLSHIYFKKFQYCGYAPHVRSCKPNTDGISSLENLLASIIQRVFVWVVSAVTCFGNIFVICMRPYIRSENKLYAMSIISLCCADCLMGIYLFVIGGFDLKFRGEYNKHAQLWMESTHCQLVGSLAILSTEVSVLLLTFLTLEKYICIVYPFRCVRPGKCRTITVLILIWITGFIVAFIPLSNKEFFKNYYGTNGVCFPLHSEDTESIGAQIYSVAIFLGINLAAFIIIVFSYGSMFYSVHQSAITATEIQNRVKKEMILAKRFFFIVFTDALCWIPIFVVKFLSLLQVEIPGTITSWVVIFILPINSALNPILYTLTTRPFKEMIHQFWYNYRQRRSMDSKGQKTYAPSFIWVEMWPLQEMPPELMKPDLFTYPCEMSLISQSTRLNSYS

dog RXFP1 = dog RXFP1 (dog)
rat RXFP1 = molecular target: T3, rat RXFP1 (rat, UniProt Q6R6I6 1-758)
T3 sequence (looked up): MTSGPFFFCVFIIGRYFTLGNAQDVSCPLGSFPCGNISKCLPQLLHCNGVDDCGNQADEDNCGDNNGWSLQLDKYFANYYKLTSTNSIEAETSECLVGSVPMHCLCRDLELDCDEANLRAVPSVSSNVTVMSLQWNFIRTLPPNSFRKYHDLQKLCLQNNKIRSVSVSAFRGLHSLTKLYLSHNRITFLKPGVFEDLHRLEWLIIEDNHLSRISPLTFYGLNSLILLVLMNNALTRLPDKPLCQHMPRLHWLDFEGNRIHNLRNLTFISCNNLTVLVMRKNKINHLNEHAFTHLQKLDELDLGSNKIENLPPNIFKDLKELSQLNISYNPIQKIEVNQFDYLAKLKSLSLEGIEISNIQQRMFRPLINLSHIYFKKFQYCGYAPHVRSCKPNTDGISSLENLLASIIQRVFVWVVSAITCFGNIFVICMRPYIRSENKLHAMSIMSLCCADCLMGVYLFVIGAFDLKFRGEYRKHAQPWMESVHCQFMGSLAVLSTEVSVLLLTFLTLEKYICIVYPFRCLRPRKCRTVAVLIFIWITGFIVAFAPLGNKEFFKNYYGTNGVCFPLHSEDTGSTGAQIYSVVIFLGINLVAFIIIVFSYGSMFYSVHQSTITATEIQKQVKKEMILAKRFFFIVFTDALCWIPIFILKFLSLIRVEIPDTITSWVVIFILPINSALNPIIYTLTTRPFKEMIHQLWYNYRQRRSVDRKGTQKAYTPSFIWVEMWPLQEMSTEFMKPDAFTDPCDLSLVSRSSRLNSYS

mouse RXFP1 = molecular target: T4, mouse RXFP1 (mouse, UniProt Q6R6I7 1-758)
T4 sequence (looked up): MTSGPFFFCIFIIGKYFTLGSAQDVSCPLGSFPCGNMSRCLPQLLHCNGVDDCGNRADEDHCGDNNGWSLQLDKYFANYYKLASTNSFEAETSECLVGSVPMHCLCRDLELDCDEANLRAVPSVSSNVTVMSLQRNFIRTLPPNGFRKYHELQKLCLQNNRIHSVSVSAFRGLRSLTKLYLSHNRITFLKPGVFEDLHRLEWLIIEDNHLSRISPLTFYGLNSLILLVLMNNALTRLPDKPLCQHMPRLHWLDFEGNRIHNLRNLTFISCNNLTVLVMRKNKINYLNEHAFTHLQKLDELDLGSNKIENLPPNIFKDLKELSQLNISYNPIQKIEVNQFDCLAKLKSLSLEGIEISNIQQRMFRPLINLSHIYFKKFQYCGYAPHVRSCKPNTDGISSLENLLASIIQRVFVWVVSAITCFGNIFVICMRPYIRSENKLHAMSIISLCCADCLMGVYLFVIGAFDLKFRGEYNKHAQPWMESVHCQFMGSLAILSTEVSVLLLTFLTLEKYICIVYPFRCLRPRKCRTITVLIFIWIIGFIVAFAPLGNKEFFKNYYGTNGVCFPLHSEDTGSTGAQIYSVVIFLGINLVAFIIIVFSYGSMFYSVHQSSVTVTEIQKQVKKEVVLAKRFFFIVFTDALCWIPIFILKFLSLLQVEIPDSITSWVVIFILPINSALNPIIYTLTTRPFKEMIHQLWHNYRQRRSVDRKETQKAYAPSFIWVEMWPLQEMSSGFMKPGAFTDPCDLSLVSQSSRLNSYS

B1: RLX-A-AQ1-20KPEG (ligand)
chain 1: XLYSALANKCCHVGCTKRSLARFC
chain 2: ASWMEEVIKLCGRELVRAQIAICGMSTWS
modifications: para-acetylphenylalanine (pAcF, X) at position 1 of the A chain, linked to a 20 kDa PEG via an oxime linkage
RLX-A-AQ1-20KPEG Potency Ratio (hRXFP1-1.0), cAMP assay (human RXFP1): 1 fold | RLX-A-AQ1-20KPEG Potency Ratio (hRXFP1-1.0), cAMP assay (cynomolgus monkey RXFP1): 1.6 fold | RLX-A-AQ1-20KPEG Potency Ratio (hRXFP1-1.0), cAMP assay (dog RXFP1): 4.7 fold | RLX-A-AQ1-20KPEG Potency Ratio (hRXFP1-1.0), cAMP assay (rat RXFP1): 0.34 fold | RLX-A-AQ1-20KPEG Potency Ratio (hRXFP1-1.0), cAMP assay (mouse RXFP1): 0.66 fold
